This note sets out measurements from article PMC4868954.

pKd: −log10 of the molar value.

The experiment addresses complement component C3b (human) (UniProt P01024). Briefly: SPR. On the technique in general: SPR reads the build-up and loss of mass on a sensor chip optically.
What is called pKd is −log10 of the Kd, conventionally taken in molar units. The low end stands for a large Kd, the high end for a small Kd. As to “complement receptor 1 CR1 CCP15–17 (residues 942–1,136) (from UniProt P17927 942-1136) (domain or fragment)”, the negative logarithm of the Kd (pKd) is 5.72.

“decay-accelerating factor DAF CCP1–4 (domain or fragment)” had a pKd of 5.21.

factor H FH CCP1–4 (domain or fragment) showed a negative-log Kd (pKd) of 5.14.

In turn, “membrane-cofactor protein MCP CCP1–4 (residues 35–285), from E. coli (from UniProt P15529 35-285) (domain or fragment)” had a pKd of 6.46.

For the substance “smallpox inhibitor of complement enzymes, SPICE CCP1–4 (residues 19–263) (natural protein)”, the pKd was 5.89.
